Experiments:
[1] = biological target: T1, recombinant human LILRB1-His (human, UniProt Q8NHL6 24-458); assay: MSD ELISA, coated antigen, transfection supernatant
T1 construct: Bought protein; also called LILRB1 protein
Procedure: (§1) To confirm binding to human LILRB1 and human LILRB2, transfection supernatants (obtained in Example 2) were evaluated for binding by ELISA. The conditioned media from these transient transfections were assayed for human IgG concentration by AlphaLISA® immunoassay (PerkinElmer, No. AL310C) (Table 4). A plate-based MSD ELISA was performed in which human LILRB1-His or LILRB2-His was immobilized, and binding of transfection supernatants of humanized mAb variants was detected via an anti-human IgG Sulfo-tag-labeled secondary antibody. The IgG1 version of the parental rabbit/human chimera (designated B21A1) transfection served as the benchmark EC₅₀ positive control.
(§2) Recombinant human and cynomolgus LILRB1 proteins (R&D Systems, No. 8989-T2-050; ACROBiosystems, No. CDJ-C52H3) and recombinant human and cynomolgus LILRB2 proteins (ACROBiosystems, No. LI2-H5220; No. L12-C52H3) were diluted in PBS to 4 μg/mL and added to a multi-array 384-well high-binding plates (MSD, No. L21XA4) at 10 μL/well and incubated at 4° C. overnight. The plates were washed several times with Wash Buffer (0.05% Tween® 20 in PBS), using a microplate washer and then blocked with 70 μL/well of 5% BSA in PBS for 1 hour (h) at room temperature (RT) with shaking at 700 rpm. After blocking, 20 μL/well of anti-LILRB2/LILRB1 antibodies or isotype control were added to the plates, and the plates were sealed and incubated for 2 h at RT with shaking at 700 rpm. After primary antibody binding, plates were washed five times with 70 μL/well of Wash Buffer (0.05% Tween® 20 in PBS) using a microplate washer. Secondary detection antibody (SULFO-TAG™-labeled goat anti-human IgG antibody (MSD, No. R32AJ-1)) was diluted to 4 μg/mL in assay diluent (1% BSA in PBS) and 10 μL/well was added to plates and incubated at RT protected from light for 1 h, with shaking at 700 rpm. Following incubation, plates were washed five times with Wash Buffer, using a microplate washer. After removal of the final wash, 35 μL/well of MSD Gold Read Buffer B (MSD, No. R60AM-4) was added to all wells using a Multidrop combo washer/dispenser, and plates were read using MESO Sector 600MM instrument (MSD) within 5 minutes (min) after addition of Read Buffer. Signals as counts per minute (cpm) were recorded.

[2] = biological target: T2, recombinant human LILRB2-His (human, UniProt Q8N423 22-461, limits assumed); assay: as above
T2 construct: Bought protein; also called LILRB2 protein
T2 sequence (Q8N423 22-461 limits assumed): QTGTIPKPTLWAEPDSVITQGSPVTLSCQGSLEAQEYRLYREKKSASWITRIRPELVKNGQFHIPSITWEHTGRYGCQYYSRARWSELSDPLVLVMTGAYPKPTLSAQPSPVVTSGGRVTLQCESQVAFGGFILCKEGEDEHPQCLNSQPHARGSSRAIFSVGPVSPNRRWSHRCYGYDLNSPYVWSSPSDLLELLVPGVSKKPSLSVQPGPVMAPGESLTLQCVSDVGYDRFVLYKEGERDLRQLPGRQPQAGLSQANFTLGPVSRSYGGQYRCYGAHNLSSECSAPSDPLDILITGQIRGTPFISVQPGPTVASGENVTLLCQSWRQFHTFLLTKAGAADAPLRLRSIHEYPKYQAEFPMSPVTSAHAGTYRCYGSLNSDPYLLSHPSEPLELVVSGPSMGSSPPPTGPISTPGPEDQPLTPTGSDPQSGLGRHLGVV
Procedure: as §1, §2

T1 sequence (Q8NHL6 24-458 limits assumed): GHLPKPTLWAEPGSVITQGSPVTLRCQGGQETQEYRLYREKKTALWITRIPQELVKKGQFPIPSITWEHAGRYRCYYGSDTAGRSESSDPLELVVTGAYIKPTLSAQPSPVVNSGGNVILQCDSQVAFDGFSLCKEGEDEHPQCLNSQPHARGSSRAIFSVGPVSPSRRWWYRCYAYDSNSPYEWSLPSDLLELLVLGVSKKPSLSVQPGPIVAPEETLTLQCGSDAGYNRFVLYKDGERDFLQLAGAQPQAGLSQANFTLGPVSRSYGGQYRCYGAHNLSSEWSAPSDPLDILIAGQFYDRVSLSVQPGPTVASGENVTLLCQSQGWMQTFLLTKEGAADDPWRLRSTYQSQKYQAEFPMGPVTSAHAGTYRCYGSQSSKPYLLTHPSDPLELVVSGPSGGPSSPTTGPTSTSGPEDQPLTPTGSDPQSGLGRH

Binder	EC50 [1] [ng/mL]	EC50 [2] [ng/mL]
B21H4-11 (antibody, human IgG4 S228P, kappa, humanized IgG4/kappa, VH1+VL1; transfection supernatant) heavy: not shown light: DIQMTQSPSTLSASVGDRVTITCQASGNIYSFLAWYQQKPGKAPKLLIYTASNLETGVPSRFSGSGSGTEYTLTISSLQPDDFATYYCLGGLYSSDVSYAFGPGTKVEIKRTVAAPSVFIFPPSDEQLKSGTASVVCLLNNFYPREAKVQWKVDNALQSGNSQESVTEQDSKDSTYSLSSTLTLSKADYEKHKVYACEVTHQGLSSPVTKSFNRGEC	2.24	1.45
B21H4-35 (antibody, human IgG4 S228P, kappa, V domains shown, humanized IgG4/kappa, VH3+VL5; transfection supernatant) VH: EVQLVESGGDLAQPGGSLRLSCAVSGFSLNTYAMTWVRQAPGKGLEWVSIIVASGGTYYASWAKGRFTISRDNSKNTVYLQMTSLRAEDTALYFCARGGMGSDWGESLDAFDPWGQGTLVTVSS VL: DIQMTQTPSTVEASVGGTVTITCQASGNIYSFLAWYQQKPGQPPKLLIYTASNLETGVPSRFSGSGSGTEYTLTISGLQSDDAATYYCLGGLYSSDVSYAFGGGTEVVVKR	3.91	1.73
B21H4-15 (antibody, human IgG4 S228P, kappa, humanized IgG4/kappa, VH1+VL5; transfection supernatant) heavy: not shown light: DIQMTQTPSTVEASVGGTVTITCQASGNIYSFLAWYQQKPGQPPKLLIYTASNLETGVPSRFSGSGSGTEYTLTISGLQSDDAATYYCLGGLYSSDVSYAFGGGTEVVVKRTVAAPSVFIFPPSDEQLKSGTASVVCLLNNFYPREAKVQWKVDNALQSGNSQESVTEQDSKDSTYSLSSTLTLSKADYEKHKVYACEVTHQGLSSPVTKSFNRGEC	3.1	1.25
B21H4-25 (antibody, human IgG4 S228P, kappa, humanized IgG4/kappa, VH2+VL5; transfection supernatant) heavy: not shown light: DIQMTQTPSTVEASVGGTVTITCQASGNIYSFLAWYQQKPGQPPKLLIYTASNLETGVPSRFSGSGSGTEYTLTISGLQSDDAATYYCLGGLYSSDVSYAFGGGTEVVVKRTVAAPSVFIFPPSDEQLKSGTASVVCLLNNFYPREAKVQWKVDNALQSGNSQESVTEQDSKDSTYSLSSTLTLSKADYEKHKVYACEVTHQGLSSPVTKSFNRGEC	3.95	1.42
B21H4-55 (antibody, human IgG4 S228P, kappa, humanized IgG4/kappa, VH5+VL5; transfection supernatant) heavy: not shown light: DIQMTQTPSTVEASVGGTVTITCQASGNIYSFLAWYQQKPGQPPKLLIYTASNLETGVPSRFSGSGSGTEYTLTISGLQSDDAATYYCLGGLYSSDVSYAFGGGTEVVVKRTVAAPSVFIFPPSDEQLKSGTASVVCLLNNFYPREAKVQWKVDNALQSGNSQESVTEQDSKDSTYSLSSTLTLSKADYEKHKVYACEVTHQGLSSPVTKSFNRGEC	2.92	1.57
B21H4-23 (antibody, human IgG4 S228P, kappa, humanized IgG4/kappa, VH2+VL3; transfection supernatant) heavy: not shown light: DIVMTQSPSSVSASVGDRVTITCQASGNIYSFLAWYQQKPGKAPKLLIYTASNLETGVPSRFSGSGSGTDFTLTISSLQPEDFATYYCLGGLYSSDVSYAFGGGTKVVIKRTVAAPSVFIFPPSDEQLKSGTASVVCLLNNFYPREAKVQWKVDNALQSGNSQESVTEQDSKDSTYSLSSTLTLSKADYEKHKVYACEVTHQGLSSPVTKSFNRGEC	2.85	1.08
B21H4-21 (antibody, human IgG4 S228P, kappa, V domains shown, humanized IgG4/kappa, VH2+VL1; transfection supernatant) VH: EVQLLESGGGLVQPGGSLRLSCAASGFSLNTYAMTWVRQAPGKGLEWVSIIVASGGTYYASWAKGRFTISRDNSKNTLYLQMNSLTVEDTAVYFCARGGMGSDWGESLDAFDPWGQGTLVTVSS VL: DIQMTQSPSTLSASVGDRVTITCQASGNIYSFLAWYQQKPGKAPKLLIYTASNLETGVPSRFSGSGSGTEYTLTISSLQPDDFATYYCLGGLYSSDVSYAFGPGTKVEIKR	2.32	1.93
B21H4-22 (antibody, human IgG4 S228P, kappa, humanized IgG4/kappa, VH2+VL2; transfection supernatant) heavy: not shown light: DIQMTQSPSSLSASVGDRVTITCQASGNIYSFLAWYQQKPGKVPKLLIYTASNLETGVPSRFSGSGSGTDYTLTISSLQSEDAATYYCLGGLYSSDVSYAFGGGTKVVIKRTVAAPSVFIFPPSDEQLKSGTASVVCLLNNFYPREAKVQWKVDNALQSGNSQESVTEQDSKDSTYSLSSTLTLSKADYEKHKVYACEVTHQGLSSPVTKSFNRGEC	1.85	1.06
B21H4-24 (antibody, human IgG4 S228P, kappa, humanized IgG4/kappa, VH2+VL4; transfection supernatant) heavy: not shown light: DVVMTQSPSTVSASVGDRVTLTCQASGNIYSFLAWYQQKPGQPPKLLIYTASNLETGVPDRFSGSGSGTDYTLTISSLQADDFATYYCLGGLYSSDVSYAFGQGTKVEIKRTVAAPSVFIFPPSDEQLKSGTASVVCLLNNFYPREAKVQWKVDNALQSGNSQESVTEQDSKDSTYSLSSTLTLSKADYEKHKVYACEVTHQGLSSPVTKSFNRGEC	1.95	0.84
B21H4-33 (antibody, human IgG4 S228P, kappa, humanized IgG4/kappa, VH3+VL3; transfection supernatant) heavy: not shown light: DIVMTQSPSSVSASVGDRVTITCQASGNIYSFLAWYQQKPGKAPKLLIYTASNLETGVPSRFSGSGSGTDFTLTISSLQPEDFATYYCLGGLYSSDVSYAFGGGTKVVIKRTVAAPSVFIFPPSDEQLKSGTASVVCLLNNFYPREAKVQWKVDNALQSGNSQESVTEQDSKDSTYSLSSTLTLSKADYEKHKVYACEVTHQGLSSPVTKSFNRGEC	2.66	0.72
B21H4-43 (antibody, human IgG4 S228P, kappa, humanized IgG4/kappa, VH4+VL3; transfection supernatant) heavy: not shown light: DIVMTQSPSSVSASVGDRVTITCQASGNIYSFLAWYQQKPGKAPKLLIYTASNLETGVPSRFSGSGSGTDFTLTISSLQPEDFATYYCLGGLYSSDVSYAFGGGTKVVIKRTVAAPSVFIFPPSDEQLKSGTASVVCLLNNFYPREAKVQWKVDNALQSGNSQESVTEQDSKDSTYSLSSTLTLSKADYEKHKVYACEVTHQGLSSPVTKSFNRGEC	3.04	0.63
B21H4-31 (antibody, human IgG4 S228P, kappa, V domains shown, humanized IgG4/kappa, VH3+VL1; transfection supernatant) VH: EVQLVESGGDLAQPGGSLRLSCAVSGFSLNTYAMTWVRQAPGKGLEWVSIIVASGGTYYASWAKGRFTISRDNSKNTVYLQMTSLRAEDTALYFCARGGMGSDWGESLDAFDPWGQGTLVTVSS VL: DIQMTQSPSTLSASVGDRVTITCQASGNIYSFLAWYQQKPGKAPKLLIYTASNLETGVPSRFSGSGSGTEYTLTISSLQPDDFATYYCLGGLYSSDVSYAFGPGTKVEIKR	3.58	2.02
B21H4-32 (antibody, human IgG4 S228P, kappa, humanized IgG4/kappa, VH3+VL2; transfection supernatant) heavy: not shown light: DIQMTQSPSSLSASVGDRVTITCQASGNIYSFLAWYQQKPGKVPKLLIYTASNLETGVPSRFSGSGSGTDYTLTISSLQSEDAATYYCLGGLYSSDVSYAFGGGTKVVIKRTVAAPSVFIFPPSDEQLKSGTASVVCLLNNFYPREAKVQWKVDNALQSGNSQESVTEQDSKDSTYSLSSTLTLSKADYEKHKVYACEVTHQGLSSPVTKSFNRGEC	2.46	0.95
B21H4-41 (antibody, human IgG4 S228P, kappa, V domains shown, humanized IgG4/kappa, VH4+VL1; transfection supernatant) VH: EVQLVESGGGLVQPGGSLRLSCAASGFSLNTYAMTWVRQAPGKGLEWISIIVASGGTYYASWAKGRFTISRDNAKSSVYLQLTSLTTEDTAVYYCARGGMGSDWGESLDAFDPWGQGTMVTVSS VL: DIQMTQSPSTLSASVGDRVTITCQASGNIYSFLAWYQQKPGKAPKLLIYTASNLETGVPSRFSGSGSGTEYTLTISSLQPDDFATYYCLGGLYSSDVSYAFGPGTKVEIKR	5.71	1.38
B21H4-12 (antibody, human IgG4 S228P, kappa, humanized IgG4/kappa, VH1+VL2; transfection supernatant) heavy: not shown light: DIQMTQSPSSLSASVGDRVTITCQASGNIYSFLAWYQQKPGKVPKLLIYTASNLETGVPSRFSGSGSGTDYTLTISSLQSEDAATYYCLGGLYSSDVSYAFGGGTKVVIKRTVAAPSVFIFPPSDEQLKSGTASVVCLLNNFYPREAKVQWKVDNALQSGNSQESVTEQDSKDSTYSLSSTLTLSKADYEKHKVYACEVTHQGLSSPVTKSFNRGEC	2.41	0.74
B21H4-42 (antibody, human IgG4 S228P, kappa, humanized IgG4/kappa, VH4+VL2; transfection supernatant) heavy: not shown light: DIQMTQSPSSLSASVGDRVTITCQASGNIYSFLAWYQQKPGKVPKLLIYTASNLETGVPSRFSGSGSGTDYTLTISSLQSEDAATYYCLGGLYSSDVSYAFGGGTKVVIKRTVAAPSVFIFPPSDEQLKSGTASVVCLLNNFYPREAKVQWKVDNALQSGNSQESVTEQDSKDSTYSLSSTLTLSKADYEKHKVYACEVTHQGLSSPVTKSFNRGEC	3.12	1.08
B21H4-44 (antibody, human IgG4 S228P, kappa, V domains shown, humanized IgG4/kappa, VH4+VL4; transfection supernatant) VH: EVQLVESGGGLVQPGGSLRLSCAASGFSLNTYAMTWVRQAPGKGLEWISIIVASGGTYYASWAKGRFTISRDNAKSSVYLQLTSLTTEDTAVYYCARGGMGSDWGESLDAFDPWGQGTMVTVSS VL: DVVMTQSPSTVSASVGDRVTLTCQASGNIYSFLAWYQQKPGQPPKLLIYTASNLETGVPDRFSGSGSGTDYTLTISSLQADDFATYYCLGGLYSSDVSYAFGQGTKVEIKR	3.23	1.63

From patent publication US20250002577A1 (ONCORESPONSE, published 2025)
